Results from US11202818B2, “Methods and compositions for modulating erythropoiesis” (President and Fellows of Harvard College, priority 2016, dated 2021).
“Also recorded” adds a separate entry of the source.

B1: Wnt5a: Recombinant Human/Mouse Wnt-5a, ligand of Ryk; R&D systems CAT #645-WN-010 (protein)
chain: MAGSAMSSKFFLVALAIFFSFAQVVIEANSWWSLGMNNPVQMSEVYIIGAQPLCSQLAGLSQGQKKLCHLYQDHMQYIGEGAKTGIKECQYQFRHRRWNCSTVDNTSVFGRVMQIGSRETAFTYAVSAAGVVNAMSRACREGELSTCGCSRAARPKDLPRDWLWGGCGDNIDYGYRFAKEFVDARERERIHAKGSYESARILMNLHNNEAGRRTVYNLADVACKCHGVSGSCSLKTCWLQLADFRKVGDALKEKYDSAAAMRLNSRGKLVQVNSRFNSPTTQDLVYIDPSPDYCVRNESTGSLGTQGRLCNKTSEGMDGCELMCCGRGYDQFKTVQTERCHCKFHWCCYVKCKKCTEIVDQFVCK
B2: MSP: Macrophage Stimulating Protein, ligand of Mst1r; R&D systems CAT #6244-MS-025 (protein)
chain: MGLWWVTVQPPARRMGWLPLLLLLTQCLGVPGQRSPLNDFQVLRGTELQHLLHAVVPGPWQEDVADAEECAGRCGPLMDCRAFHYNVSSHGCQLLPWTQHSPHTRLRRSGRCDLFQKKDYVRTCIMNNGVGYRGTMATTVGGLPCQAWSHKFPNDHKYTPTLRNGLEENFCRNPDGDPGGPWCYTTDPAVRFQSCGIKSCREAACVWCNGEEYRGAVDRTESGRECQRWDLQHPHQHPFEPGKFLDQGLDDNYCRNPDGSERPWCYTTDPQIEREFCDLPRCGSEAQPRQEATTVSCFRGKGEGYRGTANTTTAGVPCQRWDAQIPHQHRFTPEKYACKDLRENFCRNPDGSEAPWCFTLRPGMRAAFCYQIRRCTDDVRPQDCYHGAGEQYRGTVSKTRKGVQCQRWSAETPHKPQFTFTSEPHAQLEENFCRNPDGDSHGPWCYTMDPRTPFDYCALRRCADDQPPSILDPPDQVQFEKCGKRVDRLDQRRSKLRVVGGHPGNSPWTVSLRNRQGQHFCGGSLVKEQWILTARQCFSSCHMPLTGYEVWLGTLFQNPQHGEPSLQRVPVAKMVCGPSGSQLVLLKLERSVTLNQRVALICLPPEWYVVPPGTKCEIAGWGETKGTGNDTVLNVALLNVISNQECNIKHRGRVRESEMCTEGLLAPVGACEGDYGGPLACFTHNCWVLEGIIIPNRVCARSRWPAVFTRVSVFVDWIHKVMRLG

Experiments:
[1] = system: embryonic day 13.5 fetal liver cells; test: Epo-dependent erythroid colony formation (CFU-e/BFU-e) in MethoCult, fetal liver; format: cell-based, mouse
Source text: Here, IL-17ra is expressed in the EEP region of the bBM SPRING plot (FIG. 4, Panel a) and its corresponding P2 subset (FIG. 4, Panel n), and to a lesser extent in the CEP/P1 region, in addition to its expression by non-erythroid cells. Both Ryk and mst1r are expressed more selectively, principally within the CEP/P1 region of the erythroid trajectory (FIG. 4, Panels a and n). Wnt5a, MSP and IL-17a were used to stimulate Ryk, mst1r and IL-17ra respectively, and measured their interaction with Epo, an essential erythroid cytokine, using colony formation assays (FIG. 4, Panel c). Epo concentration in blood ranges from 5-10 mU/ml in the basal state, to 10,000 mU/ml in extremely severe anemia The addition of MSP to FL in the presence of mildly elevated Epo concentrations (50 mU/ml, characteristic of mild anemia) was equivalent to a 10-fold increase in Epo concentration, generating over 2 fold the number of CFUe (day 3 unifocal) colonies. However, in the context of high Epo (>100 mU/ml), the addition of MSP was inhibitory. MSP-mediated inhibition was also seen in earlier FL progenitors and in BM progenitors of all stages. […] In summary, MSP, Wnt5a and IL-17a may provide powerful modulation of pre-ETD erythroid progenitors, in a manner that is highly dependent on their developmental stage and background state of progenitor stimulation (stress v. basal).
In bone marrow (BM), 1117ra was expressed by EEPs/P2 and to a lesser extent by CEPs/P1, in addition to non-erythroid cells. Both Ryk and Mst1r are expressed more selectively, though not exclusively, by EEP and CEP cells (FIG. 15, Panel a, and FIG. 16, Panels a and b). Ryk, Mst1r and IL-17Ra were stimulated with their respective ligands, Wnt5a, MSP and IL-17a, using Epo-dependent erythroid colony formation as readout (FIG. 15, Panels b and c, FIG. 7). Epo concentration in blood varies from ˜10 mU/ml in health, to 10,000 mU/ml in severe anemia. […] By contrast. IL-17a mediated a potentiation of adult BM CFU-e colony formation throughout the Epo dose-response curve, giving rise to 4-fold more colonies at lower Epo (50 mU/ml), and to a ˜50% increase in colony formation when added to maximal levels of Epo (FIG. 15, Panels b. and c).
Growth factor perturbations of erythroid colony formation: CFU-e and BFU-e colony formation assays in MethoCult (M3234 STEMCELL Technologies) were carried out on either freshly isolated bone marrow or on embryonic day 13.5 fetal liver cells from Balb/cJ mice. The following growth factors were tested: MSP/MST1 (R&D systems; CAT #6244-MS-025), Recombinant Human/Mouse Wnt-5a (R&D systems; CAT #645-WN-010) and Recombinant Murine IL17 (IL-17A) (PeproTech; CAT 4210-17). In each experiment, a range of Epo concentrations was tested, with or without added additional growth factors (MSP, Wnt5a or IL-17A) as indicated in FIG. 5 and in Extended Data FIG. 12. In addition to Epo, IL-3 (long/mL) and SCF (50ng/ mL) were added to the MethoCult in the case of BFU-e assays. Each condition was tested in quadruplicates, in at least 2 separate experiments. Colonies were scored on day 3 (for CFU-e), day 4 (for late BFU-e) and on day 7 (for early BFU-e) following staining with diaminobenzidine, to highlight hemoglobin expression.

[2] = system: freshly isolated bone marrow; test: Epo-dependent erythroid colony formation (CFU-e/BFU-e) in MethoCult, bone marrow; format: cell-based, mouse; conditions: BM progenitors of all stages
Source text: Here, IL-17ra is expressed in the EEP region of the bBM SPRING plot (FIG. 4, Panel a) and its corresponding P2 subset (FIG. 4, Panel n), and to a lesser extent in the CEP/P1 region, in addition to its expression by non-erythroid cells. Both Ryk and mst1r are expressed more selectively, principally within the CEP/P1 region of the erythroid trajectory (FIG. 4, Panels a and n). Wnt5a, MSP and IL-17a were used to stimulate Ryk, mst1r and IL-17ra respectively, and measured their interaction with Epo, an essential erythroid cytokine, using colony formation assays (FIG. 4, Panel c). […]
In bone marrow (BM), 1117ra was expressed by EEPs/P2 and to a lesser extent by CEPs/P1, in addition to non-erythroid cells. […] Ryk, Mst1r and IL-17Ra were stimulated with their respective ligands, Wnt5a, MSP and IL-17a, using Epo-dependent erythroid colony formation as readout (FIG. 15, Panels b and c, FIG. 7). […]
Growth factor perturbations of erythroid colony formation: CFU-e and BFU-e colony formation assays in MethoCult (M3234 STEMCELL Technologies) were carried out on either freshly isolated bone marrow or on embryonic day 13.5 fetal liver cells from Balb/cJ mice. […] Colonies were scored on day 3 (for CFU-e), day 4 (for late BFU-e) and on day 7 (for early BFU-e) following staining with diaminobenzidine, to highlight hemoglobin expression.

Row | Molecule | effect on erythroid colony formation in FL ([1]; FL progenitors) | effect on erythroid colony formation in BM [2] | effect on fetal liver erythropoiesis at low erythropoietin ([1]; FL, Epo 50 mU/ml or less) | equivalent increase in Epo concentration ([1]; FL, Epo 50 mU/ml, ligand added) [fold] | number of CFUe (day 3 unifocal) colonies generated, fold ([1]; FL, Epo 50 mU/ml, ligand added) | effect on fetal liver erythropoiesis at high Epo ([1]; FL, Epo >100 mU/ml) | effect in earlier FL progenitors ([1]; FL, earlier progenitors (BFU-e)) | effect on erythroid colony formation in other contexts ([1]; contexts other than FL at Epo 50 mU/ml (FL and BM))
1 | B1 | consistent and potent inhibitor | consistent and potent inhibitor |  |  |  |  |  | 
2 | B2 |  | inhibition; also recorded: inhibitory effect | enhance erythropoiesis | 10 | over 2 fold | inhibitory; also recorded: inhibit erythropoiesis | inhibition | inhibitory
